Patent US20240084005A1 (ALLAKOS, published 2024)
Positions count from the first letter of the chain named.

B1: AK19 Fab (Fab, V domains shown)
VH: QVQLQESGPGLVKPSETLSLTCTVSGFSLTSYGVSWIRQPPGKGLEWIGVIWHDGSTSYHSTLISRVTISRDTSKNQVSLKLSSVTAADTAVYYCASDGYSGTFAYWGQGTLVTVSS
VL: QIVVTQSPATLSLSPGERATLSCTASSSVSSSYLHWYQQKPGQAPRLLIYSTSILASGIPARFSGSGSGTDFTLTISSLQPEDFAVYYCHQYHRSPYTFGQGTKLEIK
B2: AK20 Fab (Fab, V domains shown)
VH: B1 VH with S61P, T62S, I64K
VL: B1 VL
B3: AK21 Fab (Fab, V domains shown)
VH: B1 VH with T30S, S58N, H60N, S61P, T62S, I64K
VL: B1 VL
B4: AK04 Reference Fab (Fab, V domains shown)
VH: QVQLKESGPGLVAPSQSLSITCTVSGFSLTSYGVSWVRKPPGKGLEWLGVIWHDGSTSYHSTLISRLNISRDNSKSQVFLKLNSLQTDDTATYYCASDGYSGTFAYWGQGTLVTVSA
VL: QIVVTQSPAIMSASLGERVTMTCTASSSVSSSYLHWYQQKPGSSPKLWIYSTSILASGVPARFSGSGSGTSYSLTVSSMEAEDAATYYCHQYHRSPYTFGGGSKLEIR
B5: AK10 (antibody, V domains shown)
VH: EVQLQQSGPELMKPGASVKISCKASGYTFTDYYMNWVKQSHGKSLEWIGDINPKIGDTIYNQKFKGKATLTVDKSSSTAYMELRSLTSEDSAVYYCARWDYYGSSLFDYWGQGTTLTVSS
VL: DIVMTQSHKFMSTSVGDRVSITCKASQDVTTAVAWYQQKPGQSPKLLIYWASTRHTGVPDRFTGTGSGTDYTLTISNVQAEDLALYYCQQHYSTPYTFGGGTKLEIK
notes: also called anti-Siglec-6 mAb AK10
B6: AK11 (antibody, V domains shown)
VH: EVMLVESGGGLVKPGGSLKLSCAASGFSFSTYVMSWVRQTPEKRLEWVASISGGGSNTYYPDSVKGRFTISRDNAKNTLYLQMSSLRSEDTALYYCARREVVVYWYFDVWGTGTTVTVSS
VL: DIQMTQSPASLSVSVGETVTITCRASENIYSNLAWYQQKQGKSPQLLVFSAKNLADGVPSRFGGSGSGTQYSLKINSLQSEDFGTYYCQHFWGTPLTFGAGTKLELK
notes: also called anti-Siglec-6 mAb AK11
B7: AK14 (antibody, V domains shown)
VH: QIQLVQSGPELKKPGETVKISCKASGYTFTTYGMSWVKQAPGKGLKWMGWINTYSGVPTYADDFKGRFAFSLETSATTAYLQINNLKNEDTATYFCARLAYFGYYFDFWGQGTTLTVSS
VL: DIVMTQSQKFMSTTVGDRVSFTCKASQNVGSAVAWYQQKPGQSPKLLIYSASNRYTGVPDRFTGSGSGTDFTLTISNMQSEDLADYFCQQYSSYPYTFGGGTKLEIK
notes: also called anti-Siglec-6 mAb AK14
B8: AK09 (antibody, V domains shown)
VH: B7 VH with F29L, D63E, T77S, A100G, F102Y, F108Y
VL: DVVLTQSPATLSVTPGDSVSLSCRASQSIRNNLHWYQQKSHESPRLLIKYIFQSISGIPSRFSGSGSGTEFTLSINSVETEDFGMYFCQQSDSWPHVTFGAGTKLELI
notes: also called anti-Siglec-6 mAb AK09
B9: AK13 (antibody, V domains shown)
VH: B7 VH
VL: B7 VL with A34T
notes: also called anti-Siglec-6 mAb AK13
B10: AK15 (antibody, V domains shown)
VH: QVQLKESGPGLVAPSQSLSITCTVSGFSLTSYGVSWVRQPPGKGLEWLGIIWGDGSTNYHSALISRLSISKDKSKSQVFLKLNSLQADDTATYYCAKGLSDWYFDVWGTGTTVTVSS
VL: QIVLSQSPAILSASPGEKVTMTCRASSSVSYMHWYQQKPGSSPKPWIYATSNLASGVPARFSGSGSGTSYSLTISRVEAEDAATYYCQQWSSNPYTFGGGTKLEIK
notes: also called anti-Siglec-6 mAb AK15
B11: AK12 (antibody, V domains shown)
VH: QVQLKQSGPGLVQPSQSLSITCTVSGFSLTSYGVHWVRQSPGKGLEWLGVIWGGGSTDYNAGFISRLSISKDNSKSQVFFKMNSLQADDTAIYYCARALSDWYFDVWGTGTTVTVSS
VL: B10 VL with Y95L, G99A, I105L
notes: also called anti-Siglec-6 mAb AK12
B12: AK08 (antibody, V domains shown)
VH: B10 VH with S35N, V37I, I50V, K73N, A87T, G98A
VL: B10 VL
notes: also called anti-Siglec-6 mAb AK08
B13: AK03 (antibody, V domains shown)
VH: EVQLQQSGTVLARPGASVKMSCKTSGYTFTSYWMHWVKQRPGQGLEWIGTIYPGNSDSTYNQKFKGKAKLTAVTSASTAYMEVSSLTNEDSAVYYCSREGTVVANYYGLDYWGQGTSVTVSS
VL: B10 VL with M32I, N93K, Y95P, G99A, I105L
notes: also called anti-Siglec-6 mAb AK03
B14: AK02 (antibody, V domains shown)
VH: QVQLQQPGAELVKPGASVKLSCKASGYTFTNYYIHWVKQRPGQGLEWIGMIHPISGSTNYNEKLKIKATLTVDKSSSTAYMQLSSLTSEDSAVYYCARRYYGSSYWYFDVWGTGTTVTVSS
VL: B10 VL with H33N, S69P, N93H, Y95P, G99S
notes: also called anti-Siglec-6 mAb AK02
B15: AK06 (antibody, V domains shown)
VH: EVPLVESGGGLVKPGGSLKLSCAASGFTFSDYGIHWVRQAPEKGLEWVAYITSVSSTIYYADTVKGRFTISRDNAKNTLFLQMTSLRSEDTAMYYCAILDWYFDVWGTGTTVTVSS
VL: QIVLTQSPAIMSASPGEKVTMTCSANSSVSFMHWFQQKSGTSPKRWIYDTSKLASGVPARFSASGSGTSYSLTISSMEAEDAATYYCQQWSSNPLTFGAGTKVELK
notes: also called anti-Siglec-6 mAb AK06
B16: AK07 (antibody, V domains shown)
VH: EVQLQQSGPELVKPGASVKMSCKASGYTFTDYKMHWVKQSHGKSLEWIGNINPNNGGTSYNQKFKGKATLTVNKSSSTAYMELRSLTSEDSAVYYCARRYYGSSSSYFDYWGQGTTLTVSS
VL: B15 VL with A25V, N26S, F31Y, F35Y, A63G, L95P, V103L
notes: also called anti-Siglec-6 mAb AK07
B17: AK04 (antibody, V domains shown)
VH: B4 VH
VL: B4 VL
notes: also called anti-Siglec-6 mAb AK04; AK04 IgG1
B18: AK05 (antibody, V domains shown)
VH: QVQLQQPGTELVKPGASVQLSCKASGYIFTSYWMYWVKQRPGQGLEWIGNVNPYSGDTNYNEKFKTKATLTVDKASSTAFIQLSGLTSEDSAVYFCARGDGLYYYAMDYWGQGTSVTVSS
VL: DIKMTQSPSSMYASLGERVTITCKASQDINSYLTWFQQKPGKSPKTLIYRASRLVDGVPSRFSGSGSGQDYSLTISSLEYEDMGIYYCLQYDEFPLTFGAGAKLELI
notes: also called anti-Siglec-6 mAb AK05
B19: AK01 (antibody, V domains shown)
VH: QVQLKQSGPGLVQPSQSLSITCTVSGFSLTSYSVHWVRQSPGKGLEWLGVIWSGGSTDYNAVFISRLSISRDNSKSQVFFKMNSLQADDSAIYYCASYSYYTMDYWGQGTSVTVSS
VL: DVVMTQTPLSLPVSLGDQASISCRSSQSLVLDNGNTYLHWYLQKPGQSPKLLIYKVSNRFSGVPDRFTGSGSGTDFTLKINRVEAEDLGVYFCSQSTHVPFTFGSGTKLEIK
notes: also called anti-Siglec-6 mAb AK01

Each molecule was assayed against Siglec-6 (antigen of Example 8) (human, UniProt O43699 27-347, limits assumed) (assay: BLI, monovalent Fab).
Sequence of Siglec-6 (antigen of Example 8) (O43699 27-347 limits assumed): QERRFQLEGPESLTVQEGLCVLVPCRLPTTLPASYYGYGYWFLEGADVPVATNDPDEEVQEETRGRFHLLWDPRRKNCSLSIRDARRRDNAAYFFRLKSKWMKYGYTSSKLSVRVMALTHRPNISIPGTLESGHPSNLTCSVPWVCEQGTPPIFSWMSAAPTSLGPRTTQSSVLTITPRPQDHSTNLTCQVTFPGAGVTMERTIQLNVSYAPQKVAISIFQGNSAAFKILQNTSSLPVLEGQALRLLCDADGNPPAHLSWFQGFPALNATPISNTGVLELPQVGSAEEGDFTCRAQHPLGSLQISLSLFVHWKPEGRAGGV

Kd [nM] | koff [s⁻¹] | kon [M⁻¹ s⁻¹] | Molecule
0.032 | 2.6e-05 | 830000 | B1
0.12 | 9.1e-05 | 750000 | B2
0.04 | 3.7e-05 | 920000 | B3
0.075 | 6.5e-05 | 860000 | B4

Each molecule was assayed against T1, Siglec-6 domain 1 fused to a human Fc (human, UniProt O43699 27-147) (assay: ELISA on Siglec-6 domain-human Fc fusions (Domain Mapping = 2)).
T1 construct: also called domain 1 fusion protein; not shown: human Fc
T1 sequence (O43699 27-147 limits assumed): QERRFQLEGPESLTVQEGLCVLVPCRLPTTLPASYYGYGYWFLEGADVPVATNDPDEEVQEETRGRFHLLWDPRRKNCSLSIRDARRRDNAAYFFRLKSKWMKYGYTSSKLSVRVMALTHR
Description: (§1) Domain mapping was assessed by ELISA using recombinantly expressed Siglec-6 extracellular domains fused to a human Fc containing the full ECD, domains 1 and 2, or domain 1. Siglec-6 mAbs were tested for binding to each of these domain fusion proteins and assigned domains based on their specific binding properties. Siglec-6 mAbs that bound to all three fusion proteins were assigned domain 1 binders, mAbs that bound to full ECD and domains 1 and 2 were assigned domain 2 binders, and mAbs that bound to only the full ECD protein were assigned domain 3 binders.

binding result | Molecule
no binding | B5
no binding | B6

Each molecule was assayed against T2, Siglec-6 domains 1 and 2 fused to a human Fc (human, UniProt O43699 27-237) (assay: ELISA on Siglec-6 domain-human Fc fusions (Domain Mapping = 3)).
T2 construct: also called domains 1 and 2 fusion protein; not shown: human Fc
T2 sequence (O43699 27-237 limits assumed): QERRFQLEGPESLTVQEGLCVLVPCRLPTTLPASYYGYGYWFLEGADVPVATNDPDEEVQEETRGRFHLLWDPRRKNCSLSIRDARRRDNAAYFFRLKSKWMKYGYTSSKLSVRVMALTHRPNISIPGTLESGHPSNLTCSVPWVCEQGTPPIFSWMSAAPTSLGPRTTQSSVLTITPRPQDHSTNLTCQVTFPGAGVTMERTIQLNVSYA
Description: as §1

binding result | Molecule
no binding | B7
no binding | B8
no binding | B9
no binding | B10
no binding | B11
no binding | B12

What follows are molecules tested against T1, Siglec-6 domain 1 fused to a human Fc in the same assay as above.
Description: as §1

binding result | Molecule
no binding | B7
no binding | B8
no binding | B9
no binding | B10
no binding | B11
no binding | B12

The molecules below were run against T3, Siglec-6 ECD Fc protein (human, UniProt O43699 27-347) (assay: BLI (Octet Red 384), bivalent IgG on immobilized Siglec-6 ECD Fc).
T3 construct: also called Siglec-6 full ECD fused to a human Fc; not shown: human Fc
T3 sequence (O43699 27-347): as the sequence (O43699 27-347 limits assumed) above
Description: Bivalent binding affinities of IgG for Siglec-6 mAbs were measured by biolayer interferometry using a FortéBio Octet Red 384 instrument using immobilized Siglec-6 ECD Fc protein.

Kd [nM] | Molecule
0.009 | R&D MAB2859 (antibody)
0.084 | B5
0.072 | B7
0.11 | B8
0.063 | B9
1.04 | B10
0.001 | B13
0.007 | B14
0.087 | B11
0.261 | B12
0.024 | B15
0.069 | B16
0.002 | B6
0.001 | B17
0.055 | B18
0.001 | B19
